Test results published in patent US20070020327A1.
Like-named read-outs stand apart in the source and are kept apart here. Blank lines part the entries; values can stand above or below the binder they belong to.

Assays:
[1] = biological target: HLA-A*0206 (human); test: inhibition of 125I-standard peptide binding to purified HLA, gel filtration
[2] = biological target: HLA-A*0202 (human); test: as above
[3] = biological target: HLA-A*0201 (human); test: as above
[4] = biological target: HLA-A*0203 (human); test: as above
[5] = biological target: HLA-A*0101 (human); test: competition with 125I-labelled standard peptide for purified HLA-A*0101, gel filtration
[6] = biological target: HLA-A*0101 (human); test: competition with 125I-labeled standard peptide for purified HLA-A*0101, gel filtration
[7] = biological target: HLA-A*0301 (human); test: competition with 125I-labelled standard peptide for purified HLA-A*0301, gel filtration; ratio to the A*0301 standard peptide 941.12 [..] (11 nM)
[8] = biological target: HLA-A*0203 (human); test: competitive inhibition of 125I-labelled standard peptide binding to purified HLA, gel filtration; conditions: for IC50: remark: other sources report otherwise
[9] = biological target: HLA-A*0202 (human); test: inhibition of 125I-labelled standard peptide binding to purified HLA-A*0202, gel filtration
[10] = biological target: HLA-A*0206 (human); test: inhibition of 125I-labelled standard peptide binding to purified HLA-A*0206, gel filtration
[11] = biological target: HLA-A*0203 (human); test: inhibition of 125I-labelled standard peptide binding to purified HLA-A*0203, gel filtration
[12] = biological target: HLA-A*6802 (human); test: inhibition of 125I-labelled standard peptide binding to purified HLA-A*6802, gel filtration
[13] = biological target: HLA-A*0201 (human); test: inhibition of 125I-labelled standard peptide binding to purified HLA-A*0201, gel filtration
[14] = biological target: HLA-A*1101 (human); test: competition with a 125I-labelled standard peptide for purified HLA-A*1101, gel filtration; conditions: scale: ratio
[15] = biological target: HLA-A*0202 (human); test: competitive inhibition of 125I-labelled standard peptide binding to purified HLA, gel filtration
[16] = biological target: HLA-A*0201 (human); test: as above
[17] = biological target: HLA-A*0301 (human); test: competition with 125I-labelled standard peptide on purified HLA-A*0301, gel filtration
[18] = biological target: HLA-A*0206 (human); test: competitive inhibition of 125I-labelled standard peptide binding to purified HLA; conditions: remark: other sources report otherwise
[19] = biological target: HLA-A*0202 (human); test: as above; conditions: remark: other sources report otherwise
[20] = biological target: HLA-A*0201 (human); test: as above; conditions: remark: other sources report otherwise
[21] = remark: other sources report otherwise

binding affinity ratio (IC50 standard peptide / IC50 test peptide) (ratio to standard peptide) [1, 21]: 0.011
binding affinity ratio (IC50 standard peptide / IC50 test peptide) (ratio to standard peptide) [2, 21]: 0.045
binding affinity ratio (IC50 standard peptide / IC50 test peptide) (ratio to standard peptide) [3, 21]: 0.0018
binding affinity ratio (IC50 standard peptide / IC50 test peptide) (ratio to standard peptide) [4, 21]: 0.082
Binder: LTLSVTWIGA (modifications not checked)

binding affinity ratio (IC50 of standard peptide / IC50 of test peptide) [5]: 0.001
Binder: WGEVKRQIY (modifications not checked) [… (PSM, position 725)]

binding affinity ratio (IC50 of standard peptide / IC50 of test peptide) [6]: 0.0001
Binder: KAENIKKFLY (modifications not checked) [… (PSM, position 66)]

binding affinity ratio (IC50 of standard peptide / IC50 of test peptide) [7]: 0.0006
Binder: DALFDIESK (modifications not checked) [PSM 710 peptide …]

IC50 [8]: 4 nM
Binder: FLRPRSLQCV (modifications not checked) [peptide 1419.07 … (HuK2.165)]

binding affinity ratio (IC50 standard peptide / IC50 test peptide) (ratio to standard peptide) [2, 21]: 0.0087
binding affinity ratio (IC50 standard peptide / IC50 test peptide) (ratio to standard peptide) [4, 21]: 0.0074
Binder: LTPKKLQCVDL (modifications not checked) [PSA 162 …]

binding affinity ratio (IC50 of standard peptide / IC50 of test peptide) [9]: 0.0006
binding affinity ratio (IC50 of standard peptide / IC50 of test peptide) [10]: -0.0001
binding affinity ratio (IC50 of standard peptide / IC50 of test peptide) [11]: 0.0006
binding affinity ratio (IC50 of standard peptide / IC50 of test peptide) [12]: -0.0001
binding affinity ratio (IC50 of standard peptide / IC50 of test peptide) [13]: 0.0001
Binder: CLKKNSQV (modifications not checked) [CLKKNSQV (Kallikrein, position 66)]

binding affinity ratio [14]: 0.0001
Binder: DTFPTDPIK (modifications not checked) [PAP 51 peptide …]

binding affinity ratio (IC50 standard peptide / IC50 test peptide) (ratio to standard peptide) [1]: -0.0001
binding affinity ratio (IC50 standard peptide / IC50 test peptide) (ratio to standard peptide) [2]: -0.0001
binding affinity ratio (IC50 standard peptide / IC50 test peptide) (ratio to standard peptide) [3]: 0.0001
binding affinity ratio (IC50 standard peptide / IC50 test peptide) (ratio to standard peptide) [4]: 0.0002
Binder: LTDAVKVM (modifications not checked) [PSA 128 LTDAVKVM]

binding affinity ratio (IC50 of standard peptide / IC50 of test peptide) [6]: 0.0011
Binder: EPALGTTCY (modifications not checked) [… (Kallikrein, position 145; PSA, position 141)]

binding affinity ratio (IC50 of standard peptide / IC50 of test peptide) [6]: 0.001
Binder: LFEPPPPGY (modifications not checked) [… (PSM, position 143)]

binding affinity ratio [14]: 0.0002
Binder: EIASKFSER (modifications not checked) [PSM 641 peptide …]

binding affinity ratio (IC50 standard peptide / IC50 test peptide) (ratio to standard peptide) [1, 21]: 0.0025
binding affinity ratio (IC50 standard peptide / IC50 test peptide) (ratio to standard peptide) [2, 21]: 0.0014
binding affinity ratio (IC50 standard peptide / IC50 test peptide) (ratio to standard peptide) [3, 21]: 0.0008
binding affinity ratio (IC50 standard peptide / IC50 test peptide) (ratio to standard peptide) [4, 21]: 0.037
Binder: LTLSVTWIGAA (modifications not checked)

binding affinity ratio (ratio to standard peptide) [15]: 0.0084
binding affinity ratio (ratio to standard peptide) [16]: 0.0003
binding affinity ratio (ratio to standard peptide) [8]: 0.0088
Binder: ITDVVKVLGL (modifications not checked) [… (Kallikrein, position 132)]

binding affinity ratio (IC50 of standard peptide / IC50 of test peptide) [17]: 0.0005
Binder: LLHETDSAVA (modifications not checked) [… (PSM, position 4)]

binding affinity ratio (IC50 of standard peptide / IC50 of test peptide) [12, 21]: -0.0002
binding affinity ratio (IC50 of standard peptide / IC50 of test peptide) [13, 21]: 0.0008
Binder: CALPEKPAVYT (modifications not checked) [… (Kallikrein, position 234)]

binding affinity ratio (IC50 of standard peptide / IC50 of test peptide) [17]: 0.0006
Binder: LLEKMGGSA (modifications not checked) [… (PSM, position 305)]

binding affinity ratio [14]: 0.0001
binding affinity ratio (IC50 of standard peptide / IC50 of test peptide) [7]: 0.0003
Binder: DMSLLKNR (modifications not checked) [PSA 98 peptide DMSLLKNR]

binding affinity ratio (IC50 of standard peptide / IC50 of test peptide) [5, 21]: 0.62
Binder: LTQLGMEQHY (modifications not checked) [… (PAP, position 70)]

binding affinity ratio (IC50 of standard peptide / IC50 of test peptide) [10, 21]: 0.0002
binding affinity ratio (IC50 of standard peptide / IC50 of test peptide) [12, 21]: -0.0001
binding affinity ratio (IC50 of standard peptide / IC50 of test peptide) [13, 21]: 0.0001
Binder: CLKKNSQVWL (modifications not checked) [… (Kallikrein, position 66)]

binding affinity ratio [14]: 0.001
Binder: DVLLSYPNK (modifications not checked) [PSM 114 peptide …]

binding affinity ratio (IC50 standard peptide / IC50 test peptide) (ratio to standard peptide) [1, 21]: 0.001
binding affinity ratio (IC50 standard peptide / IC50 test peptide) (ratio to standard peptide) [3, 21]: 0.003
Binder: LLRLSEPAKI (modifications not checked) [Kallikrein 123 …]

IC50 [18]: 128 nM
IC50 [19]: 518 nM
IC50 [20]: 69 nM
Binder: KVTKFMLCV (modifications not checked) [Peptide 60.0220, … (PSA.187.V9)]

binding affinity ratio [14]: 0.0002
binding affinity ratio (IC50 of standard peptide / IC50 of test peptide) [7]: 0.0003
Binder: DIESKVDPSK (modifications not checked) [PSM 714 peptide …]

binding affinity ratio (IC50 of standard peptide / IC50 of test peptide) [5]: 0.0001
Binder: RGAVEPDRY (modifications not checked) [… (PSM, position 363)]

binding affinity ratio (IC50 of standard peptide / IC50 of test peptide) [7]: 0.004
Binder: CSPSCPLER (modifications not checked) [PAP 347 peptide …]

binding affinity ratio (IC50 of standard peptide / IC50 of test peptide) [6]: 0.004
Binder: AGESFPGIY (modifications not checked) [… (PSM, position 701)]

IC50 [16, 21]: 72 nM
IC50 [8]: 73 nM
Binder: SLHLLSNDMCA (modifications not checked) [peptide 1419.14 … (HuK2.175)]

binding affinity ratio (IC50 of standard peptide / IC50 of test peptide) [17]: 0.001
Binder: LLPPYASCH (modifications not checked) [… (PAP, position 306)]

binding affinity ratio (IC50 of standard peptide / IC50 of test peptide) [17]: 0.0006
Binder: LLSYPNKTH (modifications not checked) [… (PSM, position 116)]

IC50 [18]: 2850 nM
IC50 [19]: 159 nM
IC50 [20]: 385 nM
Binder: VVFLTLSVTWI (modifications not checked) [Peptide 1419.25, … (PSA.1)]

binding affinity ratio (IC50 of standard peptide / IC50 of test peptide) [9]: -0.0001
binding affinity ratio (IC50 of standard peptide / IC50 of test peptide) [10]: -0.0001
binding affinity ratio (IC50 of standard peptide / IC50 of test peptide) [11]: -0.0001
binding affinity ratio (IC50 of standard peptide / IC50 of test peptide) [12]: -0.0001
binding affinity ratio (IC50 of standard peptide / IC50 of test peptide) [13]: -0.0001
Binder: CALPEKPA (modifications not checked) [CALPEKPA (Kallikrein, position 234)]

binding affinity ratio (IC50 standard peptide / IC50 test peptide) (ratio to standard peptide) [1, 21]: 0.002
binding affinity ratio (IC50 standard peptide / IC50 test peptide) (ratio to standard peptide) [2, 21]: 0.08
binding affinity ratio (IC50 standard peptide / IC50 test peptide) (ratio to standard peptide) [3, 21]: 0.003
binding affinity ratio (IC50 standard peptide / IC50 test peptide) (ratio to standard peptide) [4, 21]: 0.028
Binder: LLSNDMCARA (modifications not checked) [Kallikrein 178 …]

binding affinity ratio (IC50 standard peptide / IC50 test peptide) (ratio to standard peptide) [2]: -0.0001
binding affinity ratio (IC50 standard peptide / IC50 test peptide) (ratio to standard peptide) [3]: 0.0003
binding affinity ratio (IC50 standard peptide / IC50 test peptide) (ratio to standard peptide) [4]: 0.0006
Binder: LTLSVTWI (modifications not checked) [PSA 4 LTLSVTWI]

binding affinity ratio (IC50 of standard peptide / IC50 of test peptide) [9]: 0.0003
binding affinity ratio (IC50 of standard peptide / IC50 of test peptide) [10]: -0.0001
binding affinity ratio (IC50 of standard peptide / IC50 of test peptide) [12]: -0.0002
binding affinity ratio (IC50 of standard peptide / IC50 of test peptide) [13]: 0.0001
Binder: CAGLWTGGKDT (modifications not checked) [… (Kallikrein, position 198)]

binding affinity ratio (IC50 of standard peptide / IC50 of test peptide) [17]: 0.0003
Binder: LSLLSLYGIH (modifications not checked) [… (PAP, position 241)]

binding affinity ratio (IC50 of standard peptide / IC50 of test peptide) [6]: 0.0002
Binder: LPERPSLY (modifications not checked) [LPERPSLY (PSA, position 232)]

binding affinity ratio (IC50 of standard peptide / IC50 of test peptide) [5]: 0.001
Binder: TYELVEKFY (modifications not checked) [… (PSM, position 558)]

binding affinity ratio (IC50 of standard peptide / IC50 of test peptide) [7, 21]: 0.06
Binder: CSGKIVIARY (modifications not checked) [PSM 196 peptide …]
